The source of these data is patent US20170002094A1 (Takeda / Millennium, published 2017).

Experiment [1] addresses T1, human plasma kallikrein (active form) (human, UniProt P03952 20-638).
In experiment [2] the target is T1, human plasma kallikrein (active form). Description: cell-based or functional assay.

Like-named read-outs stand apart in the source and are kept apart here.

T1 sequence (P03952 20-638 limits assumed): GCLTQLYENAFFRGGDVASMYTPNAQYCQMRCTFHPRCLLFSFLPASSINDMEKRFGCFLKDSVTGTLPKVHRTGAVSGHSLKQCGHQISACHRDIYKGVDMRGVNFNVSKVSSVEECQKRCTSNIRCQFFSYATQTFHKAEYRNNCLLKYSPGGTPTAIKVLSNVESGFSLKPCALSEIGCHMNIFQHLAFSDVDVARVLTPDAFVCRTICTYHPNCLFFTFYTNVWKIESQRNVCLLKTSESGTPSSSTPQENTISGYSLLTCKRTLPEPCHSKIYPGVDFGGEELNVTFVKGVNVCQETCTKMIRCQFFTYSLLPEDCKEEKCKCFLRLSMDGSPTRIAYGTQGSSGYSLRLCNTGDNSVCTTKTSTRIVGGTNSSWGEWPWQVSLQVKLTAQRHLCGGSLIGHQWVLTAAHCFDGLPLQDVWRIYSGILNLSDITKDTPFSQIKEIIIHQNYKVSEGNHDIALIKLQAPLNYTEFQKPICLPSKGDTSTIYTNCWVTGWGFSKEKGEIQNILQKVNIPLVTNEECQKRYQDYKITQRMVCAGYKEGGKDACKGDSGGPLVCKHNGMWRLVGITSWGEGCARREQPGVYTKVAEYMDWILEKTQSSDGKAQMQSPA

Consider ecallantide (designed binder), for which the IC50 (read off the curve) in experiment [1] amounted to 70 nM.

B1: DX-2930 (antibody, human IgG1, kappa, V domains shown)
VH: EVQLLESGGGLVQPGGSLRLSCAASGFTFSHYIMMWVRQAPGKGLEWVSGIYSSGGITVYADSVKGRFTISRDNSKNTLYLQMNSLRAEDTAVYYCAYRRIGVPRRDEFDIWGQGTMVTVSS
VL: DIQMTQSPSTLSASVGDRVTITCRASQSISSWLAWYQQKPGKAPKLLIYKASTLESGVPSRFSGSGSGTEFTLTISSLQPDDFATYYCQQYNTYWTFGQGTKVEIKR
Turning to B1, in experiment [2], the “IC50 (read off the curve)” value is approximately 70 nM.
